Reference: article PMC3751582

Target: Drosophila melanogaster cystathionine β-synthase (Drosophila melanogaster)
Experiment: native gel or EMSA

- stoichiometry N: 2
Substance: Drosophila melanogaster cystathionine β-synthase (enzyme)
